# Measured values as given in publication PMC10986471 (Microbiology Spectrum, 2024).
# What was measured:
# Assay in all cases: ELISA
# Details in all cases: both partners purified
# [1] = target: RBD of the Delta variant (B.1.617.2 lineage) (SARS-CoV-2 Delta (B.1.617.2), L452R | T478K)
# [2] = target: RBD^B.1 (receptor-binding domain of Spike^B.1) (SARS-CoV-2 B.1 (RBD as Wuhan-Hu-1), UniProt P0DTC2)
# [3] = target: RBD of the Alpha variant (B.1.1.7 lineage) (SARS-CoV-2 Alpha (B.1.1.7), N501Y)
# [4] = target: RBD of the Beta variant (B.1.351 lineage) (SARS-CoV-2 Beta (B.1.351), K417N | E484K | N501Y)
# [5] = target: RBD of the Gamma variant (P.1 lineage) (SARS-CoV-2 Gamma (P.1), K417T | E484K | N501Y)
Binder,Kd [1] [nM],Kd [2] [nM],Kd [3] [nM],Kd [4] [nM],Kd [5] [nM]
"CSW2-1353 (antibody, V domains shown, copies: 2 + 2) VH: EVQLVESGGGLVQPKGSLKLSCAASGFNFNTYAMNWVRQAPGKGLEWVARIRSKSENYVIYYADSVKDRFTISRDDSQNMLYLQMNNLKTEDTAMYYCVMSYYGNYWFAYWGQGTLVTVSA VL: DVVVTQTPLSLPVSLGDQASISCRSSQSLVHNNGNTYLHWYLQKPGQSPKLLIYKVSNRFSGVPDRFSGSGSGTDFTLKISRVEAEDLGVYFCSQSTHIPWTFGGGTKLEIK",0.114,0.118,0.152,,
"CSW1-1805 (antibody, V domains shown, copies: 2 + 2) VH: EVQLQQSGPELVKPGASLRISCRTSEYTFTENTMYWVKQSHGKSLEWIGGINPNNGDTIYNQQFKGKATLTVDKSSSTAYMELRSLTSEDSAVYYCARDSPVVPGDYWGQGTTLTVSS VL: DIVMTQSPSSLPVSVGEKVTMRCKSSQSLLYSSNQKNYLAWYQQKSGQSPKLMIYWASTRECGVPDRFTGSGSGTDFTLTISNVKAEDLAVYYCQQYYRYPLTFGVGTKLELK",0.262,0.453,0.452,0.482,0.494
